Test results published in patent publication US20180000963A1 (HELIX BIOPHARMA, published 2018).
“And” between values parts separate entries of the source, which are not always exact repeats. Equal values may be shown once.

B2: CEACAM6 (carcinoembryonic antigen-related cell adhesion molecule 6) on the surface of human tumor cell lines (receptor)
chain: KLTIESTPFNVAEGKEVLLLAHNLPQNRIGYSWYKGERVDGNSLIVGYVIGTQQATPGPAYSGRETIYPNASLLIQNVTQNDTGFYTLQVIKSDLVNEEATGQFHVYPELPKPSISSNNSNPVEDKDAVAFTCEPEVQNTTYLWWVNGQSLPVSPRLQLSNGNMTLTLLSVKRNDAGSYECEIQNPASANRSDPVTLNVLYGPDVPTISPSKANYRPGENLNLSCHAASNPPAQYSWFINGTFQQSTQELFIPNITVNNSGSYMCQAHNSATGLNRTTVTMITVSG
notes: whole, on cells; also called CEACAM6 antigen; NCA

Tests used:
[1] = target: B2; experiment: cell-based ECL competition; unlabelled competitor against L-DOS47-tag (1 µg/mL) on BxPC-3 cells
[2] = target: T1, L-DOS47 (anti-CEACAM6-urease conjugate); AFAIKL2 antibody conjugated to Jack bean urease through the SIAB … (Jack bean (Canavalia ensiformis), UniProt P07374 1-840, primary amines linked through the SIAB linkage to urease cysteines); activation sites Lys76, Met1 (N-terminal amine), Lys44, Lys32; cysteine thiols linked through the SIAB linkage to AFAIKL2; …); experiment: whole-cell binding assay, ZR-75-30 cells
T1 construct: Chemical conjugate, not a fusion; Hexameric urease (six ~91 kDa subunits) carries 0-4 AFAIKL2 per subunit; In the ECL assays it was labelled with ruthenium-NHS-ester (Sulfo-Tag); also called antibody-urease conjugate; AFAIKL2-urease

[3] = target: T2, DOS47 (Jack bean urease, unconjugated) (Jack bean (Canavalia ensiformis), UniProt P07374 1-840); experiment: whole-cell binding assay (ammonia read-out) on BxPC-3, Capan-1, ZR-75-30, LS174T and MDA-MB231 cells
T2 construct: Purified from jack bean; hexamer of six identical subunits; also called HPU; high purity urease
T2 sequence (P07374 whole entry): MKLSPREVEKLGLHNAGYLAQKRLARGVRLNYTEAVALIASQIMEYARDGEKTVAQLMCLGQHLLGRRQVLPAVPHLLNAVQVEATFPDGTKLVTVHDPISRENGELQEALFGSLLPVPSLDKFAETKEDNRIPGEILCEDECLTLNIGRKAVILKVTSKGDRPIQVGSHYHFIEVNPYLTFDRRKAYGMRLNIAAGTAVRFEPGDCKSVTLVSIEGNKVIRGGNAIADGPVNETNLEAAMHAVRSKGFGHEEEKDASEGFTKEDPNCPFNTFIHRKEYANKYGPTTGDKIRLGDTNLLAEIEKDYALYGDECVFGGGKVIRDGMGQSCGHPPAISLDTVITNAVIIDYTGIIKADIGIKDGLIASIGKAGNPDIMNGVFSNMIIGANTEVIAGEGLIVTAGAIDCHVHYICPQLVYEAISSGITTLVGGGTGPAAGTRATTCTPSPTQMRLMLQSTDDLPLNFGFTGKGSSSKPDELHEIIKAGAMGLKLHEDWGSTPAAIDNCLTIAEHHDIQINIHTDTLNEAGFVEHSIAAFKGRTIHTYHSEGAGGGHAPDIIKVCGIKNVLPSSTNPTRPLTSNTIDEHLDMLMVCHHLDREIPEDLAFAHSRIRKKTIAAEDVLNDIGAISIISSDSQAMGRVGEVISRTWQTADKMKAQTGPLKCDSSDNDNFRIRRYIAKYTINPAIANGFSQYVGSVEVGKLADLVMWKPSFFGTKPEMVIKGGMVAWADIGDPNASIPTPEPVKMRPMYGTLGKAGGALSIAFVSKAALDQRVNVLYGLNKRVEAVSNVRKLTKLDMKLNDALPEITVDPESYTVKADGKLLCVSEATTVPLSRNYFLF

T1 sequence (P07374 whole entry, chain 1 of 2, the tested form may be a part): as the sequence (P07374 whole entry) above
T1 sequence (VHH, as listed by the source limits assumed, chain 2 of 2): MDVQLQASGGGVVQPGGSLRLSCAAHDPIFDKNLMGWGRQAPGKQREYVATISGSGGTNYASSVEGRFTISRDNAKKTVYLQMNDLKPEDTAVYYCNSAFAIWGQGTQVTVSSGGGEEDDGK

B1: AFAIKL2 antibody (single-domain camelid antibody fragment) (VHH)
VHH: DVQLQASGGGVVQPGGSLRLSCAAHDPIFDKNLMGWGRQAPGKQREYVATISGSGGTNYASSVEGRFTISRDNAKKTVYLQMNDLKPEDTAVYYCNSAFAIWGQGTQVTVSS
notes: Expressed in E. coli BL21 (DE3) pT7-7; also called AFAIKL2-tag; native single domain antibody
IC50 [1]: ~20 µg/mL and ~1.55 µM

B2
binding result [2]: binds
binding result [3]: no binding
